Target: Chlamydia psittaci BioE (Chlamydia psittaci)
Assay: SPR

B1: stearoyl-ACP (E. coli acyl carrier protein carrying a C18 acyl group) (natural protein)
chain: STIEERVKKIIGEQLGVKQEEVTNNASFVEDLGADSLDTVELVMALEEEFDTEIPDEEAEKITTVQAAIDYINGHQA
modifications: holo-ACP carrying a stearoyl (C18) group, made with VhAasS
koff: 0.00316 s⁻¹
